According to the DeepSol protein solubility set:

Assay: soluble on expression in E. coli; label from the status in PepcDB or PDB records
With “MIIMLSEYLEEFKEYLERFKNIDINFSDVLKMSKKFIIWRLKQIFGDSSTIFTNISSEITIFDKIFQMIDYDIDGEVEKRLPKDESRFMIGVRREKEIEIKKEIITNLLDFLLIILLSHTPYFNAFVRKYAEIKKIKVIKKLPNKISVWEFIKIASRSRINDLHLERLDLENGFVDITKIKEIFAKEIIRVELMKLGENIKKRKLPDDSVVKELLNEISDYLKDKVKYEQISGIKALNYKGNIPLEWHPPCIRGILNDILSGGSPSHYARRSFVVYWFCAKFNPNLRPLDKNGNLVNVSATDIASEEEIERFIDELIEMLFKNVEDFDEKKTRYYIMHNIGYKVGHGRLTHCEYCKNWQDDGGKGLSYYCKPDELCKKKFIIHPLDYLCYNINKHLKKERFKKIKKEDKNGDNKLEHHHHHH” the “soluble on expression in E. coli” value was “soluble”.
In the case of “MIIVSRAIVLHNTAYNDSYSIAHLFSRESGRVSYLIPRSSKRGKSGGSLRLLISPLNELEITAEHKQHRDLHFIKEAKLCSLHGRIQSDPVRNSIALFLAEFLYLILRLPEADTNLYDFVAFSIDKLEEMDGPMANFHLAFLFRLLVPLGLIPDLQFGGSVIPRWFDPADGRFVPNAPAHGRGIPPHQSTYLQLFSRITFDNMKAFRLSRAERRQVLDYLVDYYRFHLPPFPLLKTPDILSTLFD”, the “soluble on expression in E. coli” value is reported as “not soluble”.
In the case of “MIIVYTTFPDWESAEKVVKTLLKERMIACANLREHRAFYWWEGKIEEDKEVGAILKTREDLWEELKERIKELHPYDVPAIIRIDVDDVNEDYLKWLIEETKK”, the “soluble on expression in E. coli” value is reported as “soluble”.
For “MIIYTTPTALILEEQGERVEFDRRNGKVLEKPEESLEILDQDVVLCGNVEFLIGKISFDEQHFLFFVVDSSVVACYRGTSAESSHSIRRIERVIAINVKSDGSVIKSQITPGSGTKLKQGTEKIMKFFAEKVTKAEPRPALLDDVLKLFNDSKDFYFCRSRDVTISSQKYFEKREAHTSEDSFFWNKRMVGNLGEAKISDKFTCPIMQGYVATSQLEITDQINAYLTITIISRRSTRRAGARYLRRGIDEASNVANFVETELILNIFEHELSFVQCRGSIPVFWSQRGFKYRPPLIINRSVEETHGVFTEHFKRLKAHYDTPLVAVSLVDQRGRELPLAQRFLEHCVKADDNDVTFFSFDLHQHCRGLNFQKLQTLISSMEETLKTIGFCWVDKTGEVVQSQKGVVRTNCIDCLDRTNLVQGQISLFVVLQQAQRLGIFGPLCEPPEVLVQTMQTMWADNGDVISTQYAGTAALKGDVTRNGERKLMGVMKDGYNSASRYYLTHTKDAQRQKAINIVTGQTEADENAEEEENEKEEEENISRMVTETIQFLVPTQQTVIAGWGLINAFQSSDEIDTVVILTRSNLYIVTYEIDGEKMTDVQIVALEDINTIQTGTSGNNRQCARLETLEGVFIWRPSTVRLFNNTAIRLKSLEEANEYISSVAEQIQVGRNMLTGAEGSVVPVAKITIPQMSVHRKSMAAMGALFGKIKRVGKPSSLSKSASTISTAQLPETDGNESDASQKSDHLMTKILKMSQFKSDSPQPEPFSSLLPAISECQTKISLL”, the “soluble on expression in E. coli” value was “not soluble”.
For “MIKDYLIETMNQDEVNLAITWAAQEGWNPGIHDATCFYQTDPHGFFAGKLNGKTIAIGSAVIYDDFFAFCGFYIVDKSYRDQGYGLELTKARLAYIGNRNAGIDGVINMLDKYARIGYQLAHNNARYCLNKTIKPISSEPHIVPLNQIDFSQLSSYDRLHFPAPRPQFLKCWINQPQSLALAYLIDGQIKGYGVIRTCHKGFKIGPLFAGTPEIAHQLFSNLVPYAKGQLIFLDIPENNPLAIELVSQYQMKKVFATARMYLKGEPPVKKESIYGITTFELG”, the “soluble on expression in E. coli” value was “not soluble”.
With “MIKEFCAENLTLLPTLDAGQISRVELCDNLAVGGTTPSYGVIKEACQLLHDKKISVATMIRPRGGDFVYNDLELKAMEEDILKAVEAGSDALVLGLLTTENQLDTDAIEQLLPATQGLPLVFHMAFDRIPTDHQHQALDQLIDYGFVRVLTHGSPEATPITDNVEQLKSLVTYANKRIEIMIGGGITAENCQSLSQLTGTAIVHGTKII” the “soluble on expression in E. coli” value was “not soluble”.
For “MIKFMSIASGSSGNCYYLSNGNQALLIDAGIPLRSISKALKDHQLPIEGNVVGVLVTHDHADHIRTIGCLGEKFHLPVFATERVHNGINSSRYMDHLPLLSRRNILQEETFRLAGFDITAFPIPHDATENVGYHITAPGFSFTLCTDVGHITDTISHYASKADYLVMEANYDCEMLLSGPYPEFLKERVSGPNGHLSNQETGDFLARTFHPGMKHVWLCHLSKDNNHPDLCWKSIEYRLFSEGIRVGKDMELTVLKRTSPSSLYTLLEDLEHHHHHH”, the “soluble on expression in E. coli” value was “soluble”.
With “MIKIPQAGRDLETIAVIGAGTIGSAISISLAKAGYHVISTRRRPDLNAGLKAYGITVTSDNVQAVTSADMVILTLKPADLVSEMKKLSQILEGKIVVSMAAAVPIRVIRHILPRSFIVRSMTNIAAEVNAGYTPFCTLEEDEGKISFVSRVLGVFGETERVDEKYMDALTAL” the “soluble on expression in E. coli” value was “not soluble”.
For “MIKKVLIANRGEIAVRIIRACKEMDIETVAIYSEADKESLHVQIADEAYCVGPTISKESYLNLTNIISVAKLTGCDAIHPGYGFLAENADFAELCRECNLIFIGPSPEAISKMGTKDVARDTMKEAGVPIVPGSQGIIKNTEEAIELANQIGYPVIIKATAGGGGKGIRVARHEEELVKGIQITQQEASTAFGNPGVYLEKYVEDFRHVEIQIMADTHGNAIHLGERDCTIQRRLQKLLEESPSPALDENVRKQMGEAAVKAAVAVDYTGAGTVEFIYEYKTKSFYFMEMNTRIQVEHPVTEMVTGVDLIKEQILVASGEKLSLQQEEVQFNGWAIECRINAENPAKKFMPSPGKVEMYLPPGGFGIRVDSAVYPGYSIPPFYDSMVAKLIVHGKTREEAIAKMKRALSEFVVEGVHTTIPFHLQLLDHPDFVKGEFNTKFLEEHELVTQ”, the “soluble on expression in E. coli” value was “not soluble”.
With “MIKLAPAGLKDDIEMRKVYAGFIAGQIEAGSPIIALEADLMSSMAMDSVARDYPQHVINCGIMEANVIGTAAGLALTGRKPFVHTFTAFASRRCFDQLFMALDYQRNNVKVIASDAGVTACHNGGTHMSFEDMGIVRGLAHSVVLEVTDAVMFADILRQLMDLDGFYWLRTIRKQARSIYAPGSTFTIGKGNVLREGDDITLIANGIMVAEALEAARQLEQEGVSAAVIDMFTLKPIDRMLVKNYAEKTRRIVTCENHSIHNGLGSAVAEVLVENCPVPMRRVGVKERYGQVGTQDFLQKEYGLTAEAIVEAAKSLL” the “soluble on expression in E. coli” value was “not soluble”.
With “MIKLFTDSDLDGIGCGLLAKLAFAEVNISFCSYRNLDERVVQFLQSDEANGAMLFITDLAVGKEVEQQLAERAARGGHVQVIDHHVTALHFNDYPWGQVVPVRDDGKKTCATSLFYDYLVREGKLAPNETLDGFVELVRQYDTWEWEENGNLQAKRLNDLLTIFGLDGFWETMSERLASREPFSLTETEELLLDMEEKKIQRYIRQKQKQLVQRWLGDYCIGVVFAERHLSELGNALSKRYPHLDLIALVNMGTKHIGFRTIHDDVNVAEFAQQFGGGGHPKASGCLIDDTTFPLFVVETFPLLPVYGDAEQNQLNKKDEAEGVFWTNHHGQWWLSRKTAQGWSVYADGGETHTFPEEIAGERWLKRQFAAGLAHDAAVLDFLSVRLGRDKDAIQADYKAAVKQYKQQTGIES” the “soluble on expression in E. coli” value was “not soluble”.
With “MIKPVGSDELKPLFVYDPEEHHKLSHEAESLPSVVISSQAAGNAVMMGAGYFSPLQGFMNVADAMGAAEKMTLSDGSFFPVPVLCLLENTDAIGDAKRIALRDPNVEGNPVLAVMDIEAIEEVSDEQMAVMTDKVYRTTDMDHIGVKTFNSQGRVAVSGPIQVLNFSYFQADFPDTFRTAVEIRNEIKEHGWSKVVAFQTRNPMHRAHEELCRMAMESLDADGVVVHMLLGKLKKGDIPAPVRDAAIRTMAEVYFPPNTVMVTGYGFDMLYAGPREAVLHAYFRQNMGATHFIIGRDHAGVGDYYGAFDAQTIFDDEVPEGAMEIEIFRADHTAYSKKLNKIVMMRDVPDHTKEDFVLLSGTKVREMLGQGIAPPPEFSRPEVAKILMDYYQSINS” the “soluble on expression in E. coli” value was “soluble”.
For “MIKTAQSVGELTRAIKNELESLFPFVRVKGELSNVKQHSSGHVYLTLKDSEAQIPAVIWKSVRARSPLELRDGLEVIAEGRLEVWPPAGRYQLICTALFETGEGEQRLALERLIAKLAKAGWFDAERKKPIPRIPRRIGMITSPTGAVIRDMSDVFARRFPAAELLLYPVQVQGERAVESIVRALRYFNDPPKPEHKPDVLIVARGGGSSEDLQAFNDEAVAEAIYRSAIPVISAVGHETDLSVADMVADLRAGTPSIAAERAVPDREELLRLIDNLVNRQSILMEGLISGAQLQVDSITSSYAFNRPVQMLGQFEERLALMEKEMKRAIAEKVRDREQQLTAAADRLAMLDINRTLKRGFALVTQDDRYVTSAKSLEADAKIGLTFHDGQREARVTE”, the “soluble on expression in E. coli” value was “not soluble”.
In the case of “MILAIDLGTSGAKAAIIDSAGAVHEQTFVPYSTTKLPNGGVEQDPMQWVSAARQAVTRLPRSYSVVSFTGQMQDLICLDRAGRPLGQALLYNDARAAAEAARLNTVVPEWKDITGNRQTATSTAAMWLRLMEQSD”, the “soluble on expression in E. coli” value is reported as “not soluble”.
With “MILHGFHLSTSSHCLPFIFRHLFIFHSITALCDHMLSKFVVVEVSNSNNTMTLVEYLVTHGFDKFAVVTDLVDHPSFKYKDGSSSPESPSTTASTAAQHTPPRTAVSTPTSINTPVPPHQNKQRHSIDKIAANLSTKKVSPSSIEKQLQRTSHNPLHQLSTPHALSQLQKLLEEQHKINQMNIQKKEQERQQAEIQRILLQQANAAQINHSFGLERLTPEYDDNHHSETISKASSEDLKTEPDSTDFGLGTSDDQVRASMLHLLHPVFAPAFGMLDAENIFGAASKPTTPASKRRNTDSNGAPSKKHRWLPVNELEESRSSRGKNCGRVHCKATYKCALCGKPTTLNSTGSRWNLLRHVIMIHSDCKPYKCWDCDFTGIKSNVISHARQCRHNAEDAHDITTDEMRAEWNLRLHECFPDYVRAKERGWQPEEVTVKKEEVEESPTLVKQELTLVKQEPTFAEQLEPMAQPLV” the “soluble on expression in E. coli” value was “not soluble”.
With “MILKRAYDVTPQKISTDKVRGVRKRVLIGLKDAPNFVMRLFTVEPGGLIDRHSHPWEHEIFVLKGKLTVLKEQGEETVEEGFYIFVEPNEIHGFRNDTDSEVEFLCLIPKEGGE” the “soluble on expression in E. coli” value was “not soluble”.
With “MILTTSRKPSQRTRSFARDLERTLNIPYVQRGKLSLKEIFEIDKHVLLIGEFKANPGTLVVYDVENEKRLSSFISVKLQREICGEKIYNDDGIRIKISRELKDNEEFQKYYEIYDEFLFQHLNINEDSDITLRLEKDPKYLFAIQFYKGRVKIGPLIRIKSIKLFDSLLLEHHHHHH” the “soluble on expression in E. coli” value was “soluble”.
In the case of “MILVIDVGNTNTVFGVYDGKKLLNHWRMETSKGKTSDEYGMFIVSLLSYEKIDVGKIEAVVIASVVPPIMYSLEHAIRKYFKLEPMVVGPGIKTGINIKYENPREVGADRIINAVAALELYGGPLIIVDFGTATTFCAVSSKGEYLGGVICPGIKISAEALFQKTAKLPKIDLVKPETVIGRNTVSSMQSGIIYGYVGEVDYIVRRMKKEMKEDNIKVIATGGLARLIASESETIDEINGLLTLEGLRIIYERNK”, the “soluble on expression in E. coli” value is reported as “soluble”.
With “MINTNLSSNESSAVYIHIPFCEHICYYCDFNKVFLEGQPVDEYVDLLIKEMELTVAKGPIAPVDTVFVGGGTPTTLNEAQIARLCTAIHNTLPLKKDIEFSFEANPGDLSLSKLQAMQDHGVNRISMGVQSFNNELLKKIGRIHTVKDVYQSVENMRKIGFENVSIDLIFSLPGQTEADFQDTLKQALDLDLPHYSAYSLIIEPKTIFYNLMQKGKLFLPGQDAEANMYDLLLNEMEKHGRKQYEISNFAKEGFQSKHNITYWSNEHYYGFGAGAHGYVGNTRYSNFGPIKKYMEPLQENILPTFQQKELTLKEKMEEEMFLGLRKVDGVDKKHFKQKFGQDLDATFANAIQKTTAKGWLENNEENVALTRSGRFLGNNVFQEFL” the “soluble on expression in E. coli” value was “not soluble”.
With “MIPGEYRLREEPIVCNRQKSATKLTVVNRGDRPVQVGSHFHFFEVNSFLEFDRQAAYGKHLNIPAGTAVRFEPGDAKQVELVPFSGERRVYGLNNMVNGPLDGNGKGGVRE” the “soluble on expression in E. coli” value was “soluble”.
With “MIPSQISFNTLPVNATYASETTVDTQKFSDILYSAGCSLKDMAYLSRCLASIHPTLAKNIYETENLSDQKLLHIDCRSTNEIKINIFFGQQREGLIEINSDTVIFSILSSLIDSAISKFQHQIPVNGSVNRELLYEDYTD” the “soluble on expression in E. coli” value was “not soluble”.
